Results on one molecule are retold here after patent US20240034816A1 (Sanofi, published 2024).

The target of assay [1] is T1, human BCMA on RPMI 8226 multiple myeloma cells (human, UniProt Q02223 1-184).
T1 construct: whole, on cells; also called BCMA on RPMI cells
T1 sequence (looked up): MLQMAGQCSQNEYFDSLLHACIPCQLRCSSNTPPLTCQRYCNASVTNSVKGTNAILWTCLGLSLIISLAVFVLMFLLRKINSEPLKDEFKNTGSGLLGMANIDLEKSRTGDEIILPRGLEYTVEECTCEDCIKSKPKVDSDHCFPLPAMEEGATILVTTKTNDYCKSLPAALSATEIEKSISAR
The experiment in a line: flow cytometry titration on RPMI 8226 cells, detection with goat anti-human IgG Fcγ-PE, 4-parameter fit; mean of 5 independent titrations. The procedure: After staining, cells were resuspended in BD Cellfix and analyzed by flow cytometry. Parameters were recorded and analysed with FlowJo software. Staining EC50 values were calculated with GraphPad prism using 4 parameter logistics non-linear regression model.
Background: Flow cytometry measures light scatter and fluorescence of single cells or particles in a stream.

Assay [2] concerns the target T2, recombinant human NKp46 extracellular domain (Gln22-Asn255) with C-terminal 6xHis tag (human, UniProt O76036 22-255).
T2 construct: range 22-255; also called huNKp46
Nature of the assay: SPR (Biacore 8K), NKCE captured by anti-human Fc, antigen as analyte, 1:1 model; Experiment No 3. As for the experimental part:
(§1) Measurements were performed in multicycle kinetics experiments for each antibody using a Biacore 8K instrument. In each multicycle experiment the antibodies were captured via an anti-hum a Fc antibody immobilized on a series S CM5 sensor chip (human antibody capture kit, Cytiva, Uppsala, Catalog No. BR1008-39).
(§2) The antigens, diluted as described above (concentration range 0.1 nM to 50 nM), were injected at a flow rate of 60 μL/min for 240 sec followed by a dissociation phase of 400 sec. All analyte concentrations were run in duplicate together with multiple buffer blanks for double referencing. Regeneration of the capture surface was performed with regeneration solution (3 mol/L MgCl2) for 60 sec at 30 μL/min. Binding kinetics data were evaluated with the Biacore 8K Evaluation Software version 1.1.1.7442 using a 1:1 binding model with mass transport limitation.
On the technique in general: SPR reads the build-up and loss of mass on a sensor chip optically.

Assay [3] deals with T3, recombinant cynomolgus NKp46 extracellular domain with C-terminal Flag-M2 tag (cynomolgus, UniProt Q95JB9 22-254).
T3 construct: range 22-254; also called cyno NKp46; not shown: C-terminal Flag-M2 tag
The description is as above. As for the experimental part: as §1, §2

Assay [4] concerns the target T4, human CD32a (human FcγRIIA) (human, UniProt P12318 34-217, limits assumed).
T4 construct: also called HuFcyRIIa
T4 sequence (looked up): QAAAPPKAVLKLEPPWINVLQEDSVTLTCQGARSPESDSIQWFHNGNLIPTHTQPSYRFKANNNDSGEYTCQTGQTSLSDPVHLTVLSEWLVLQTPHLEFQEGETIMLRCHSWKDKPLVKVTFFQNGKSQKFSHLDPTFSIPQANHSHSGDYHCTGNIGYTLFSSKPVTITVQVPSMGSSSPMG
Nature of the assay: SPR, fit Steady State Affinity, Exp No 3.

Assay [5] concerns the target T5, human CD32b (human FcγRIIB) (human, UniProt P31994 43-217, limits assumed).
T5 construct: also called HuFcyRIIb
T5 sequence (looked up): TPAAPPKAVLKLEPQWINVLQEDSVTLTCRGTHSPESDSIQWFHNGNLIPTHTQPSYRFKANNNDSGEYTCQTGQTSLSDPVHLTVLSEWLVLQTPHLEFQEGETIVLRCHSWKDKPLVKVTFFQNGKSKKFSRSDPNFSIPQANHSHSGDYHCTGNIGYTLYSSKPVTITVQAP
The experiment in a line: SPR, fit Steady State Affinity, Exp No 3.

Assay [6] concerns the target T6, human CD16b (human FcgRIIIB) (human, UniProt O75015 17-200, limits assumed).
T6 construct: also called HuFcyRIIIb
Nature of the assay: SPR, fit Steady State Affinity, Exp No 3.

Another assay concerns the target T7, cynomolgus CD32b (cynomolgus).
T7 construct: also called CyFcyRIIb
Nature of the assay: SPR, fit Steady State Affinity, Exp No 3.

For the next assay, the target named is T8, cynomolgus CD32a (cynomolgus).
T8 construct: also called CyFcyRIIa
Nature of the assay: SPR, fit Steady State Affinity, Exp No 3.

A further assay concerns the target recombinant human BCMA (human, UniProt Q02223 1-54). The experiment in a line: SPR (Biacore 8K), NKCE captured by anti-human Fc, antigen as analyte, 1:1 model; Experiment No 2. The procedure:
as §1, §2

The target in assay [7] is T2, recombinant human NKp46 extracellular …. Described as above. As for the experimental part: as §1, §2
Assay [8] concerns the target T3, recombinant cynomolgus NKp46 …. The description is as above. As for the experimental part: as §1, §2
The next assay deals with T9, cyno BCMA (PPB-17990) (cynomolgus, UniProt A0A2K5UD97 1-53).
T9 construct: also called cynomolgus BCMA
Described as above. As for the experimental part: as §1, §2

Broadly, the EC50 is the concentration at which the effect is half-maximal. A higher EC50 goes with weaker potency. In general, Kd refers to the concentration at which binding is half-saturated. As usually defined, the koff is the first-order rate constant of dissociation. Broadly, the kon is a measure of how fast the partners come together.

T9 sequence (A0A2K5UD97 entry or part of it): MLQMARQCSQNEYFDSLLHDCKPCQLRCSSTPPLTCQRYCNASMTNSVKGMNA
T2 sequence (O76036 other isoform, or with tags, fused parts or gaps limits assumed): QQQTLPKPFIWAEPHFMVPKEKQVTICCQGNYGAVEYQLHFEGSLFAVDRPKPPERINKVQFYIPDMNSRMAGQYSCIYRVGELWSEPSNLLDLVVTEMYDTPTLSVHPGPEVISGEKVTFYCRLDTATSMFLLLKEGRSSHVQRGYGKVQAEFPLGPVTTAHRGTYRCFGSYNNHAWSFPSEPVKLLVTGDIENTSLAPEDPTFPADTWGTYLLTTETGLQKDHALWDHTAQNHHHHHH
T3 sequence (Q95JB9 22-254): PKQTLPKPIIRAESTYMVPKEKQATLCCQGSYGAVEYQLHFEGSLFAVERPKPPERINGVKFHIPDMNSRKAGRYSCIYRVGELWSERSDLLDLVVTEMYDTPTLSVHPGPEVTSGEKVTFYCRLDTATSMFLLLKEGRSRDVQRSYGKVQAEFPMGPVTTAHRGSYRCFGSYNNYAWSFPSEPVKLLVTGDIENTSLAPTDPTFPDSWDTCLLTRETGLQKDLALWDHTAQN
T6 sequence (O75015 17-200 limits assumed): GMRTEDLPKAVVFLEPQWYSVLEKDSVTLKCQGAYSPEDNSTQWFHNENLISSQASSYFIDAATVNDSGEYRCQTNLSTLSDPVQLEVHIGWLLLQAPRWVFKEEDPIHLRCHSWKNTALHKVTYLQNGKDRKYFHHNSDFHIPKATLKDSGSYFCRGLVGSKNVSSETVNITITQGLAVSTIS

B1: NKp46-BCMA_Fc-ADE-DSB NKCE (bispecific antibody, human IgG1, kappa)
light: QTVVTQEPSLTVSPGGTVTLTCASSTGTVTPSNYANWVQQKPGQAFRGLIGDNNSRPPGTPARFSASLLGGKAALTLSGVQPEDEAEYYCALWFGNQWVFGGGTKLTVLGGGGSGGGGSDIQMTQSPSSLSASVGDRVTITCRASQDISNYLNWYQQKPGKAPKLLIYYTSRLHSGVPSRFSGSGSGTDFTFTISSLQPEDIATYFCQQGNTRPWTFGGGTKVEIKGGGGSGGGGSRTVAAPSVFIFPPSDEQLKSGTASVVCLLNNFYPREAKVQWKVDNALQSGNSQESVTEQDSKDSTYSLSSTLTLSKADYEKHKVYACEVTHQGLSSPVTKSFNRGEC
heavy: QVQLVQSGAEVKKPGSSVKVSCKASGYTFSDYVINWVRQAPGQGLEWMGEIYPGSGTNYYNEKFKAKATITADKSTSTAYMELSSLRSEDTAVYYCARRGRYGLYAMDYWGQGTTVTVSSQVQLVESGGGVVQPGRSLRLSCAASGFTFSNFGMHWVRQAPGRGLEWVAVIWSDETNRYYADSVKGRFTVSRDNVKSTVYLQMNSLISEDTAVYYCARDQQYCSSDSCFTWFDPWGQGTLVTVSSASTKGPSVFPLAPSSKSTSGGTAALGCLVKDYFPEPVTVSWNSGALTSGVHTFPAVLQSSGLYSLSSVVTVPSSSLGTQTYICNVNHKPSNTKVDKKVEPKSCDKTHTCPPCPAPELLAGPDVFLFPPKPKDTLMISRTPEVTCVVVDVSHEDPEVKFNWYVDGVEVHNAKTKPCEEQYNSTYRCVSVLTVLHQDWLNGKEYKCKVSNKALPAPEEKTISKAKGQPREPQVYTLPPCRDELTKNQVSLWCLVKGFYPSDIAVEWESNGQPENNYKTTPPVLDSDGSFFLYSKLTVDKSRWQQGNVFSCSVMHEALHNHYTQKSLSLSPG
chain: DKTHTCPPCPAPELLAGPDVFLFPPKPKDTLMISRTPEVTCVVVDVSHEDPEVKFNWYVDGVEVHNAKTKPCEEQYNSTYRCVSVLTVLHQDWLNGKEYKCKVSNKALPAPEEKTISKAKGQPREPQVCTLPPSRDELTKNQVSLSCAVKGFYPSDIAVEWESNGQPENNYKTTPPVLDSDGSFFLVSKLTVDKSRWQQGNVFSCSVMHEALHNRFTQKSLSLSPG
The molecule B1 displayed an EC50 in assay [1] of 1.33 µg/mL. Also, the Kd in [2] stood at 12.5 nM; in assay [3], 17.8 nM; in assay [4] it was 963 nM; in assay [5], 1420 nM; in assay [6], 2330 nM; with cynomolgus CD32b, 1300 nM. For the same molecule, the Kd stood at 1700 nM in the assay with cynomolgus CD32a; 0.2 nM with recombinant human BCMA; 13.2 nM in [7]; 16.2 nM in assay [8]; 0.3 nM with cyno BCMA (PPB-17990). For the same molecule, the dissociation rate constant (koff) stood at 0.0018 s⁻¹ in assay [2]; 0.0033 s⁻¹ in assay [3]; 6.9e-05 s⁻¹ in the assay with recombinant human BCMA; 0.0018 s⁻¹ in assay [7]; 0.0034 s⁻¹ in [8]; 5.8e-05 s⁻¹ with cyno BCMA (PPB-17990). The kon in assay [2] came to 140000 M⁻¹ s⁻¹; in assay [3] it was 190000 M⁻¹ s⁻¹; with recombinant human BCMA, 320000 M⁻¹ s⁻¹; in [7], 140000 M⁻¹ s⁻¹; in [8], 210000 M⁻¹ s⁻¹; with cyno BCMA (PPB-17990), 180000 M⁻¹ s⁻¹.
